The text below walks through data of patent US20060104980A1.

The target in assay [1] is HCV 1b E2 deletion construct pDN-411 (influenza virus; Hepatitis C virus genotype 1b). Nature of the assay: flow cytometry, transiently transfected HEK-293 cells, 10 ug/ml.
The target is the same in assay [2]. The assay can be described thus: GNA capture ELISA, HEK-293 extracts. For orientation: In an ELISA, binding on a coated surface is turned into a signal by an enzyme label.

Bounds are passed on as bounds.

Consider HMAb CBH-5 (antibody), for which, in assay [1], the mean fluorescence worked out at 17. Also, the OD in assay [2] is over 0.5 od.
Consider HMAb CBH-17 (antibody), for which, in assay [2], the OD was 0.1 to 0.5 od.
In assay [1], HMAb CBH-4B (antibody) returned a mean fluorescence of 17. The OD in assay [2] was over 0.5 od.
HMAb CBH-2 (antibody): the OD in assay [2] was 0.1 to 0.5 od.
Same read-out and setting: the figure for HMAb CBH-8C (antibody) is over 0.5 od; for HMAb CBH-8E (antibody) it is 0.1 to 0.5 od.
HMAb CBH-7 (antibody) showed a mean fluorescence in assay [1] of 19. Further, in assay [2], the OD is over 0.5 od.
